# Experimental data taken from paper PMC4128677, “Somatostatin Analogues for Receptor Targeted Photodynamic Therapy” (PLoS ONE, 2014).
# Read-outs that look alike come from different tables or passages of the source. Positions of bridges follow the written chain, without caps; N, C: chain ends. Non-standard residues stand in square brackets, D forms with d. Residues, ends and D or L forms follow the SMILES beside them. *: point of attachment. X1 = C=Cc1c(C)c2cc3nc(c(CC(=O)O)c4[nH]c(cc5nc(cc1[nH]2)C(C)=C5CC)c(C)c4C(=O)O)[C@@H](CCC(=O)*)[C@@H]3C
# Experiments:
# [1] = Photobleaching under 652 nm irradiation in PBS; format: physicochemical
# Experimental: Photobleaching measurements. The loss of photosensitizer absorbance and fluorescence during irradiation was used to monitor photobleaching. Solutions of Ce6 and Ce6-conjugates were prepared in PBS pH = 7.4. The concentration of photosensitizers were adjusted so that all absorb the same number of photons at irradiated region (O.D. = 0.014 at the λirr. = 652 nm (Biolitec pharma, UK). Data was acquired in quartz cuvettes in aerobic conditions using stirring under uniform, measured irradiation at 5 mWcm^-2. At intervals, the cuvette was removed from magnetic stirrer and absorption and fluorescence emission spectrum (λexc = 405 nm) acquired. The initial absorption bleaching rate constants (kblA) for Ce6 and conjugates were evaluated as reported.
# sst2 = biological target: T1, sst2 (Homo sapiens, UniProt P30874); assay: Displacement of [125I]-SS14 binding, membrane preparations of K562 sst2+ cells
# T1 construct: expressed in transfected cells; host or cells: K562 (human erythroleukemic) cells stably transfected with LZRS-lyt2-IRES-sst2; membrane preparations
# Experimental: Copy DNA of the human sst2 receptor was merged into a LZRS-lyt2-IRES plasmid background (lyt2 being the mouse CD8 receptor). The calcium precipitation method was used to transfect non-adherent K562 cells with the LZRS-lyt2-IRES-sst2. Expression of lyt2 was evaluated by means of FACS analysis using FITC labeled anti-mouse CD8 antibody (BD PharMingen, Netherlands), 1∶160 diluted in FACS-buffer. Clones were grown form Lyt2 positive isolated cells. Vital clones were cultured and tested in time for stability of sst2 receptor expression, by means of both FACS analysis (using FITC labeled octreotate 200 nM) as well as sst2 mRNA expression by RT-PCR as previously described. […] K562 cells were grown in RPMI 1640 containing L-glutamine, 10% heat-inactivated FCS, 50 µg/ml penicillin and 50 µg/ml streptomycin, and were maintained in an incubator at 37°C in an humidified atmosphere of 5% CO2.
# The binding potency of Ce6-conjugates to sst2 on K562 sst2 ^+ cells was evaluated on cell membrane preparations.
# [2] = pH titration of fluorescence/absorbance (pKa); format: physicochemical
# Experimental: pH measurements. The pH titration of PBS was performed with HNO3 and NaOH over pH 4.0-8.5. The final concentration of Ce6 and Ce6-conjugates in solution was 0.8 µM. The pH was measured by Sentron pH meter (Sentron Europe, NL) and the absorption and fluorescence emission (λexc = 408 nm) profiles of solutions were recorded. The inflection point of titration curves (pKa) were evaluated as reported. Briefly, the results of fluorescence titrations are presented in terms of a plot of fluorescence intensity as a function of pH with the constant concentration of the compound used throughout measurements. However, variations of fluorescence intensity are due to at least two contributions: the changes of molar extinction coefficient (differed absorbed intensity) and the changes of quantum efficiency with pH. To eliminate the influence of the molar extinction coefficient variations, the ratio of fluorescence intensity at the peak position to the absorbance at the excitation wavelength was plotted, followed by sigmoidal function fitting procedure (Figures S2-S4).
# [3] = 1-Octanol/PBS partition coefficient; format: physicochemical
# Experimental: Partition coefficient. Stock solutions of Ce6 and conjugates (0.6 mM) were prepared in DMSO. Lipophilicity was characterized by their partition coefficient Poct/buffer = Coct/Cbuffer between two solvents 1-octanol (oct) and PBS, pH = 7.4 (buffer). Measurements were carried out in duplicates as described by Cunderlikova et al.
# [4] = Steady-state absorption and fluorescence in PBS; format: physicochemical; settings: PBS pH = 7.4
# Experimental: Steady-State Fluorescence and Absorption Measurements. The fluorescence quantum yields (ΦF) of Ce6 and conjugates in PBS pH 7.4 were determined by a relative method. Ce6 in the buffer at pH 7.4 with the quantum yield of 0.18 [24,32,33] was used as a reference.
# The absorption profile of Ce6 and conjugate in PBS of concentration (0.06–1µM) was recorded in Shimadzu spectrophotometer (UV-2101 PC, Duisburg, Germany).
# The fluorescence emission of photosensitizers was recorded in a Perkin-Elmer spectrofluorimeter (LS 50B, Massachussetts, USA). Light at 408 nm was used for excitation. The concentration range of compounds matched to the O.D. up to 0.1.
# K562 WT cells = assay: In vitro PDT phototoxicity, K562 WT cells; format: cell-based, human; settings: 5 J.cm^−2, 652 nm; with or without Octreotide co-treatment
# Experimental: (§1) In vitro PDT experiments were performed to determine the phototoxicity of free Ce6 and conjugates. K562 sst2+ and WT cells were seeded in L-polylysine-coated (10 µg/ml) 96-well (8×10^3/well) and 24-well (4×10^4/well) and incubated overnight in 5% CO2 at 37°C. […] After incubation, cells were washed. Fresh serum-free medium was added, and cells were illuminated with 652 nm to a dose from 0.5 to 5 J cm^−2 at 5 mW.cm^−2. Thereafter, serum-containing medium was added and cells were allowed to grow for an additional 3 days in 5% FCS medium. Toxicity was determined by: measurement of DNA contents using the bisbenzimide fluorescent dye (Hoechst 33258, Boehring Diagnostics, CA, USA) and measurement of mitochondrial dehydrogenase cleavage of WST-1 reagent (Roche Diagnostics, Germany), [39]. Experiments were done in triplicates.
# [5] = Singlet oxygen quantum yield (SOSGR photooxidation); format: physicochemical; settings: PBS pH = 7.4; SOSGR 1 µM; relative to ΦΔ = 0.64 of Ce6; in duplicate
# Experimental: Singlet Oxygen Quantum Yield Measurements. Photooxidation of Singlet Oxygen Sensor Green Reagent (SOSGR) (Molecular Probes, NL) was used to determine the singlet oxygen formation by Ce6 and Ce6-conjugates. We used SOSGR because of its high selectivity for singlet oxygen and low sensitivity to hydroxyl radicals/superoxides. Stock solution of SOSGR (5 mM) was prepared in methanol. The final concentration of SOSGR within the photosensitizer solution in PBS pH 7.4 was 1 µM. The irradiation was performed the same as for photobleaching measurements described above. The singlet oxygen quantum yields (Φ?) of conjugates in PBS were determined in duplicate by a relative method with a Φ? = 0.64 of Ce6 in the PBS at pH 7.4 as reference.
# K562 sst2+ cells [6] = assay: Cellular uptake in K562 sst2+ and WT cells; format: cell-based, human; settings: 1 µM; serum-free and 5% FCS medium; fluorescence of lysate, λexc = 405 nm
# Experimental: Stock solutions of Ce6 and Ce6-conjugates (1 mM) were dissolved in 80% DMSO and were stored in the dark at −20°C. Before experiments, the solutions were diluted to a concentration of 0.1 mM in 20% DMSO. K562 sst2+ or WT (3×10^5) in 1 ml RPMI 1640 serum-free or supplemented with 5% FCS were incubated with Ce6 or with conjugate (1 µM) for 15 min to 24 h in the dark at 37°C. After incubation, the cells were centrifuged, cell pellet dissolved in 2% SDS and fluorescence emission spectra (λexc = 405 nm) recorded. Photosensitizer concentrations were calculated in triplicate according to a calibration curve generated by mixing a known concentration of photosensitizer with a lysated control samples.
# K562 sst2+ cells [7] = assay: In vitro PDT phototoxicity, K562 sst2+ cells; format: cell-based, human; settings: K562 sst2+; 5 J.cm^−2, 652 nm
# Experimental: as §1
# T1 sequence (P30874 whole entry): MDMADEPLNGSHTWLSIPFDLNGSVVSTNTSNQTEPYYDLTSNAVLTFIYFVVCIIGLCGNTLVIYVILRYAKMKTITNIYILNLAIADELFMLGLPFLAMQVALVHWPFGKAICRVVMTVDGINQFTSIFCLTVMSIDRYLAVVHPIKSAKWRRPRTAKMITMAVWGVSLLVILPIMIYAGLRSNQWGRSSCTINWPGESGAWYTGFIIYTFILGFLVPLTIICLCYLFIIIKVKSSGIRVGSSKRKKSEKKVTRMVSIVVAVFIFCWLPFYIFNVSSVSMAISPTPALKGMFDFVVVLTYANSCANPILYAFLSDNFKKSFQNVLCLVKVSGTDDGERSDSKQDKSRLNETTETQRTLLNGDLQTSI
"IC50 (sst2; membrane preparations of K562 sst2+ cells, displacement by increasing concentrations of unlabeled compound, read-out: IC50, competition with specific binding of [125I]-SS14) [nM]",Compound,photostability [1],"pKa, inflection point of pH titration curve [2]",logD ([3]; pH 7.4),"full width at half maximum of the Q(0,0) absorption band [4] [nm]",full width at half maximum of the Soret absorption band [4] [nm],maximum of fluorescence band [4] [nm],"maximum of the Q(0,0) absorption band [4] [nm]",maximum of the Soret absorption band [4] [nm],"ΦF, fluorescence quantum yield ([4]; relative method, Ce6 (0.18) as reference, excitation 408 nm)","kblA, rate constant of initial absorption bleaching ([1]; PBS pH = 7.4, 652 nm irradiation at 5 mWcm^-2, O.D. = 0.014 at 652 nm, aerobic, stirring)",PDT toxicity in K562 WT cells (K562 WT cells),"fold higher potency than conjugate 1 (sst2; ratio of IC50 values, [125I]-SS14 displacement) [×]","pKa, inflection point of pH titration curve ([2]; Fmax/A(λexc) versus pH, sigmoidal fit, PBS titrated with HNO3 and NaOH over pH 4.0-8.5, 0.8 µM, λexc = 408 nm)","ΦΔ, singlet oxygen quantum yield [5]",uptake in sst2+ cells compared to WT cells (factor) (K562 sst2+ cells [6]),fold higher accumulation in 1-octanol than in buffer ([3]; 1-octanol / PBS pH 7.4) [×],"logD ([3]; 1-octanol / PBS pH = 7.4, Poct/buffer = Coct/Cbuffer, stock 0.6 mM in DMSO, duplicates, read-out: LogP, logarithm of partition coefficient)",effect of Octreotide co-treatment (10^−5 M) on phototoxicity (K562 sst2+ cells [7])
68,"C=Cc1c(C)c2cc3nc(c(CC(=O)O)c4[nH]c(cc5nc(cc1[nH]2)C(C)=C5CC)c(C)c4C(=O)O)[C@@H](CCC(=O)N[C@@H](CCCCN)C(=O)N[C@@H](CCCCN)C(=O)N[C@@H](CCCCN)C(=O)N[C@H](Cc1ccccc1)C(=O)N[C@H]1CSSC[C@@H](C(=O)N[C@H](C(=O)O)[C@@H](C)O)NC(=O)[C@H]([C@@H](C)O)NC(=O)[C@H](CCCCN)NC(=O)[C@@H](Cc2c[nH]c4ccccc24)NC(=O)[C@H](Cc2ccc(O)cc2)NC1=O)[C@@H]3C [Conjugate 1, Ce6-K3-[Tyr3]-octreotate] (X1-KKK[dF]CY[dW]KTCT-OH; disulfide 5-10)",higher photostability,5.38±0.0615,0.679 ± 0.04,–,–,–,–,–,–,–,–,–,–,–,–,–,–,–
–,"C=Cc1c(C)c2cc3nc(c(CC(=O)O)c4[nH]c(cc5nc(cc1[nH]2)C(C)=C5CC)c(C)c4C(=O)O)[C@@H](CCC(=O)N[C@H](Cc1ccccc1)C(=O)N[C@H]1CSSC[C@@H](C(=O)N[C@H](C(=O)N[C@@H](CCCCN)C(=O)N[C@@H](CCCCN)C(=O)N[C@@H](CCCCN)C(=O)N[C@H](Cc2ccccc2)C(=O)N[C@H]2CSSC[C@@H](C(=O)N[C@H](C(=O)O)[C@@H](C)O)NC(=O)[C@H]([C@@H](C)O)NC(=O)[C@H](CCCCN)NC(=O)[C@@H](Cc4c[nH]c5ccccc45)NC(=O)[C@H](Cc4ccc(O)cc4)NC2=O)[C@@H](C)O)NC(=O)[C@H]([C@@H](C)O)NC(=O)[C@H](CCCCN)NC(=O)[C@@H](Cc2c[nH]c4ccccc24)NC(=O)[C@H](Cc2ccc(O)cc2)NC1=O)[C@@H]3C [Conjugate 2, Ce6-[Tyr3]-octreotate-K3-[Tyr3]-octreotate] (X1-[dF]CY[dW]KTCTKKK[dF]CY[dW]KTCT-OH; disulfide 2-7, 13-18)",–,–,–,26,42,665,661,405,0.03,22.70 x 10^−2 J^−1 cm^2,comparable with the PDT activity on K562 sst2+ cells,~5,6.28±0.035,0.59±0.03,no difference,> 600,2.82 ± 0.34,not inhibited by Octreotide co-treatment
